Test results from the FLAb antibody collection.

Assay: patients with anti-drug antibodies; higher = more immunogenic

Protein | patients with anti-drug antibodies [%]
unnamed (protein) chain 1: QVQLQESGPGLVKPSETLSLTCTVSGFSLTSYIVDWIRQPPGKGLEWIGVIWAGGSTGYNSALRSRVSITKDTSKNQFSLKLSSVTAADTAVYYCASAAYYSYYNYDGFAYWGQGTLVTVSS chain 2: DVVMTQSPLSLPVTLGQPASISCKSSQSLLYTDGKTYLYWFLQRPGQSPRRLIYLVSKLDSGVPDRFSGSGSGTDFTLKISRVEAEDVGVYYCLQSTHFPHTFGGGTKVEIK | 4
unnamed (protein) chain 1: EVQLVESGGGVVQPGRSLRLSCSASGFDFTTYWMSWVRQAPGKGLEWIGEIHPDSSTINYAPSLKDRFTISRDNAKNTLFLQMDSLRPEDTGVYFCASLYFGFPWFAYWGQGTPVTVSS chain 2: DIQLTQSPSSLSASVGDRVTITCKASQDVGTSVAWYQQKPGKAPKLLIYWTSTRHTGVPSRFSGSGSGTDFTFTISSLQPEDIATYYCQQYSLYRSFGQGTKVEIK | 0
unnamed (protein) chain 1: EVQLVESGGGLVQPGGSLRLSCAASGFTFNNYAMNWVRQAPGKGLDWVSTISGSGGTTNYADSVKGRFIISRDSSKHTLYLQMNSLRAEDTAVYYCAKDSNWGNFDLWGRGTLVTVSS chain 2: not shown | 3.9
unnamed (protein) chain 1: QVQLVQSGAEVKKPGSSVKVSCKASGYSFTDYHIHWVRQAPGQGLEWMGVINPMYGTTDYNQRFKGRVTITADESTSTAYMELSSLRSEDTAVYYCARYDYFTGTGVYWGQGTLVTVSS chain 2: DIVMTQTPLSLSVTPGQPASISCRSSRSLVHSRGNTYLHWYLQKPGQSPQLLIYKVSNRFIGVPDRFSGSGSGTDFTLKISRVEAEDVGVYYCSQSTHLPFTFGQGTKLEIK | 8.5
unnamed (protein) chain 1: QVQLVQSGAEVKKPGSSVKVSCKASGYTFTDYNMHWVRQAPGQGLEWIGYIYPYNGGTGYNQKFKSKATITADESTNTAYMELSSLRSEDTAVYYCARGRPAMDYWGQGTLVTVSS chain 2: DIQMTQSPSSLSASVGDRVTITCRASESVDNYGISFMNWFQQKPGKAPKLLIYAASNQGSGVPSRFSGSGSGTDFTLTISSLQPDDFATYYCQQSKEVPWTFGQGTKVEIK | 0
unnamed (protein) chain 1: QVQLVQSGGGLVQPGGSLRLSCAASGFTFSSYYMSWVRQAPGKGLEWVSGIYSDGTTHYGDSVKGRFTISRDNAKNTVYLQLNSLRAEDTAMYYCAKGAGPTWWYALDAWGQGTLVTVSS chain 2: DIQLTQSPSSVSVSVGERVTIDCKSSQSVLSASNTYLNWYQQKPGQAPQLLIYYASTRESGVPDRFSGSGSGTDFTLTISSLQAEDAAVYYCQQAYRAPVTFGQGTKLEIK | 0
unnamed (protein) chain 1: EVQLVESGGGLVRPGGSLRLSCAASGFTFSNYDMHWVRQATGKGLEWVSAITAAGDIYYPGSVKGRFTISRENAKNSLYLQMNSLRAGDTAVYYCARGRYSGSGSYYNDWFDPWGQGTLVTVSS chain 2: EIVLTQSPATLSLSPGERATLSCRASQSVSSYLAWYQQKPGQAPRLLIYDASNRATGIPARFSGSGSGTDFTLTISSLEPEDFAVYYCQQRSNWPLTFGGGTKVEIK | 3.6
unnamed (protein) chain 1: EVQLVESGGGVVQPGRSLRLSCSASGFIFSRYDMSWVRQAPGKGLEWVAYISHGGAGTYYPDSVKGRFTISRDNSKNTLFLQMDSLRPEDTGVYFCARGGVTKGYFDVWGQGTPVTVSS chain 2: DIQMTQSPSSLSASVGDRVTITCRASGNIHNYLTWYQQTPGKAPKLLIYNAKTLADGVPSRFSGSGSGTDYTFTISSLQPEDIATYYCQHFWSIPYTFGQGTKLQIT | 16.8
unnamed (protein) chain 1: QVQLVESGGGVVQPGRSLRLSCAASGFTFSSFGMHWVRQAPGKGLEWVAYISSGSFTIYYADSVKGRFTISRDNSKNTLYLQMNSLRAEDTAVYYCARMRKGYAMDYWGQGTLVTVSS chain 2: DVVMTQSPLSLPVTLGQPASISCRSSQIIIHSDGNTYLEWFQQRPGQSPRRLIYKVSNRFSGVPDRFSGSGSGTDFTLKISRVEAEDVGVYYCFQGSHVPHTFGQGTKVEIK | 0
unnamed (protein) chain 1: QVQLVQSGAEVMKPGSSVKVSCKASGYTFSWYWLEWVRQAPGHGLEWMGEIDPGTFTTNYNEKFKARVTFTADTSTSTAYMELSSLRSEDTAVYYCARFSHFSGSNYDYFDYWGQGTLVTVSS chain 2: EIVMTQSPATLSVSPGERATLSCRASQSIGTNIHWYQQKPGQAPRLLIYYASESISGIPARFSGSGSGTEFTLTISSLQSEDFAVYYCQQSWSWPTTFGGGTKVEIK | 6.3
unnamed (protein) chain 1: EVQLLESGGGLVQPGGSLRLSCAASGFTFSHYIMMWVRQAPGKGLEWVSGIYSSGGITVYADSVKGRFTISRDNSKNTLYLQMNSLRAEDTAVYYCAYRRIGVPRRDEFDIWGQGTMVTVSS chain 2: DIQMTQSPSTLSASVGDRVTITCRASQSISSWLAWYQQKPGKAPKLLIYKASTLESGVPSRFSGSGSGTEFTLTISSLQPDDFATYYCQQYNTYWTFGQGTKVEIK | 7
unnamed (protein) chain 1: QVQLKESGPGLVAPSQSLSITCTVSGFSVTNYGVHWVRQPPGKGLEWLGVIWAGGITNYNSAFMSRLSISKDNSKSQVFLKMNSLQIDDTAMYYCASRGGHYGYALDYWGQGTSVTVSS chain 2: SIVMTQTPKFLLVSAGDRVTITCKASQSVSNDVTWYQQKAGQSPKLLIYSASNRYSGVPDRFTGSGYGTAFTFTISTVQAEDLAVYFCQQDYSSFGGGTKLEIK | 100
unnamed (protein) chain 1: EVQLVESGGGLVQPGGSLRLSCAASGFSFSDFAMSWVRQAPGKGLEWVATIGRVAFHTYYPDSMKGRFTISRDNSKNTLYLQMNSLRAEDTAVYYCARHRGFDVGHFDFWGQGTLVTVSS chain 2: DIQMTQSPSSLSASVGDRVTITCRSSETLVHSSGNTYLEWYQQKPGKAPKLLIYRVSNRFSGVPSRFSGSGSGTDFTLTISSLQPEDFATYYCFQGSFNPLTFGQGTKVEIK | 18
unnamed (protein) chain 1: EVQLVQSGAEVKKPGASVKVSCKASGYRFTNYWIHWVRQAPGQGLEWIGGINPGNNYATYRRKFQGRVTMTADTSTSTVYMELSSLRSEDTAVYYCTREGYGNYGAWFAYWGQGTLVTVSS chain 2: DVQVTQSPSSLSASVGDRVTITCRSSQSLANSYGNTFLSWYLHKPGKAPQLLIYGISNRFSGVPDRFSGSGSGTDFTLTISSLQPEDFATYYCLQGTHQPYTFGQGTKVEIK | 2
unnamed (protein) chain 1: QVQLVESGGGVVQPGRSLRLSCAASGFTFSSYGMHWVRQAPGKGLEWVAVISYEESNRYHADSVKGRFTISRDNSKITLYLQMNSLRTEDTAVYYCARDGGIAAPGPDYWGQGTLVTVSS chain 2: DIVMTQSPLSLTVTPGEPASISCRSSQSLLYSNGYNYLDWYLQKPGQSPQVLISLGSNRASGVPDRFSGSGSGTDFTLKISRVEAEDVGVYYCMQARQTPFTFGPGTKVDIR | 1.8
unnamed (protein) chain 1: EVKLEESGGGLVQPGGSMKLSCVASGFIFSNHWMNWVRQSPEKGLEWVAEIRSKSINSATHYAESVKGRFTISRDDSKSAVYLQMTDLRTEDTGVYYCSRNYYGSTYDYWGQGTTLTVSS chain 2: DILLTQSPAILSVSPGERVSFSCRASQFVGSSIHWYQQRTNGSPRLLIKYASESMSGIPSRFSGSGSGTDFTLSINTVESEDIADYYCQQSHSWPFTFGSGTNLEVK | 30.5
unnamed (protein) chain 1: QVQLVQPGAEVVKPGASVKLSCKTSGYTFTSNWMHWVKQAPGQGLEWIGEIDPSDSYTNYNQNFQGKAKLTVDKSTSTAYMEVSSLRSDDTAVYYCARGSNPYYYAMDYWGQGTSVTVSS chain 2: EIVLTQSPAIMSASPGERVTMTCSASSGVNYMHWYQQKPGTSPRRWIYDTSKLASGVPARFSGSGSGTSYSLTISSMEPEDAATYYCHQRGSYTFGGGTKLEIK | 0
unnamed (protein) chain 1: EVQLLESGGGLVQPGGSLRLSCAASGFTFSIYSMNWVRQAPGKGLEWVSSIGSSGGTTYYADSVKGRFTISRDNSKNTLYLQMNSLRAEDTAVYYCAGSQWLYGMDVWGQGTTVTVSS chain 2: DIQMTQSPSSLSASVGDRVTITCRSSQRIMTYLNWYQQKPGKAPKLLIFVASHSQSGVPSRFRGSGSETDFTLTISGLQPEDSATYYCQQSFWTPLTFGGGTKVEIK | 7.4
unnamed (protein) chain 1: EVQLVESGGGLVKPGGSLKLSCAASGFKFSRYAMSWVRQAPGKRLEWVATISSGGSYIYYPDSVKGRFTISRDNVKNTLYLQMSSLRSEDTAMYYCARRDYDLDYFDSWGQGTLVTVSS chain 2: DIQMTQSPSSLSASVGDRVTITCKASRDIRSYLTWYQQKPGKAPKTLIYYATSLADGVPSRFSGSGSGQDYSLTISSLESDDTATYYCLQHGESPFTLGSGTKLEIK | 15.8
unnamed (protein) chain 1: QVTLRESGPALVKPTQTLTLTCTVSGFSLSAYSVNWIRQPPGKALEWLAMIWGDGKIVYNSALKSRLTISKDTSKNQVVLTMTNMDPVDTATYYCAGDGYYPYAMDNWGQGSLVTVSS chain 2: DIVMTQSPDSLSVSLGERATINCRASKSVDSYGNSFMHWYQQKPGQPPKLLIYLASNLESGVPDRFSGSGSGTDFTLTISSLQAEDVAVYYCQQNNEDPRTFGGGTKVEIK | 30
